Source: patent US20250002586A1 (CDR LIFE, published 2025)
Positions count from the first letter of the chain named. Where two headings read alike, the source gives them in different places.

Experiments:
[1] = target: T1, MAGE-A4 peptide … presented by HLA-A*02:01 on cells (human); assay: cell-based or functional assay
[2] = target: T2, HLA-A*02:01 in complex with the MAGE-A4 peptide … (human); assay: SPR (Biacore T200), HLA-A*02:01/MAGE-A4 peptide complex on streptavidin chip, 1:1 Langmuir fit
T2 construct: Recombinant complex as immobilised (500 RU) for SPR; also called HLA-A2/MAGE-A4 complex; pMHC-MAGE-A4 antigen
Procedure: (§1) Affinity characterization of HLA-A2/MAGE-A4×CD3 bispecific antibodies was performed by surface plasmon resonance (SPR). All experiments were conducted using a Biacore™ T200 Device (Cytiva). To determine the kinetic parameters of the binding of the bispecific antibodies to the HLA-A2/MAGE-A4 complex, a streptavidin chip (SAHC30M, XanTec) was coated according to the manufacturer's instructions with 500 RU HLA-A*02:01 in complex with the MAGE-A4 peptide. The resulting affinities presented herein correspond to the measurements performed with the respective monovalent antigen binding proteins. […] Uncoated channels were used for referencing. Data fitting was performed using a 1:1 Langmuir model.

[3] = target: CD3 heterodimer (Acro Biosystems) (UniProt P07766 23-126); assay: SPR (Biacore T200), CD3 heterodimer on HC30M chip, 1:1 Langmuir fit
CD3 heterodimer (Acro Biosystems), sequence (P07766 23-126, one chain of several): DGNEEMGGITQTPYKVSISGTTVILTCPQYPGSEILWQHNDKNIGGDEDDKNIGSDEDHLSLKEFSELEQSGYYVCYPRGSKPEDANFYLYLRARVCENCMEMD

[4] = target: T1, MAGE-A4 peptide … presented by …; assay: cell-based or functional assay; remark: listed apart in the source
[5] = target: T2, HLA-A*02:01 in complex with the MAGE-A4 …; assay: SPR, HLA-A*02:01/MAGE-A4 complex on streptavidin chip; measured in monovalent format
Procedure: as §1

B1: CDR-3 (bispecific antibody)
heavy: EVQLVESGGGSVQPGGSLRLSCAASGFTFSTYAMNWVRQAPGKGLEWVGRIRSKANNYATYYADSVKGRFTISRDDSKNTLYLQMNSLRAEDTATYYCVRHGNFGDSYVSWFAYWGQGTTVTVSSASTKGPSVFPLAPSSKSTSGGTAALGCLVKDYFPEPVTVSWNSGALTSGVHTFPAVLQSSGLYSLSSVVTVPSSSLGTQTYICNVNHKPSNTKVDKRVEPKSCGGGGSEVQLVESGGGLAQAGGSLRVSCVASGRPFTKYAWGWFRQAPGKAREFVATITWDGGKTDYADSVKGRFTISKDSAENSIYLQMNSLKPEDTAVYYCAADRNYCVGHRCYVRPDDYDYWGQGTQVTVSS
light: AVVTQEPSLTVSPGGTVTLTCGSSTGAVTTSNYANWVQQKPGKSPRGLIGGTNKRAPGVPARFSGSLLGGKAALTISGAQPEDEADYYCALWYSNHWVFGGGTKLTVLGTVAAPSVFIFPPSDEQLKSGTASVVCLLNNFYPREAKVQWKVDNALQSGNSQESVTEQDSKDSTYSLSSTLTLSKADYEKHKVYACEVTHQGLSSPVTKSFNRGEC
notes: no Fc; also called Format #3; monovalent Fab-VHH
U20S cell killing, IC50 [1]: 0.24 nM
Kd [2]: 1.9 nM

B2: CDR-4 (bispecific antibody)
heavy: EVQLVESGGGLAQAGGSLRVSCVASGRPFTKYAWGWFRQAPGKAREFVATITWDGGKTDYADSVKGRFTISKDSAENSIYLQMNSLKPEDTAVYYCAADRNYCVGHRCYVRPDDYDYWGQGTQVTVSSGGGGSEVQLVESGGGSVQPGGSLRLSCAASGFTFSTYAMNWVRQAPGKGLEWVGRIRSKANNYATYYADSVKGRFTISRDDSKNTLYLQMNSLRAEDTATYYCVRHGNFGDSYVSWFAYWGQGTTVTVSSASTKGPSVFPLAPSSKSTSGGTAALGCLVKDYFPEPVTVSWNSGALTSGVHTFPAVLQSSGLYSLSSVVTVPSSSLGTQTYICNVNHKPSNTKVDKRVEPKSC
light: B1 light
notes: no Fc; also called Format #4; monovalent Fab-VHH HLA-A2/MAGE-A4 x CD3 bispecific
U20S cell killing, IC50 [1]: 0.5 nM
Kd [2]: 1.3 nM

B3: CDR-9 (bispecific antibody)
heavy: B1 heavy with S11L, T95V, T120L, A245V, A247P, V253L, E309K, K320R, P321A, Q356L
light: QAVVTQEPSLTVSPGGTVTLTCGSSTGAVTTSNYANWVQQKPGKSPRGLIGGTNKRAPGVPARFSGSLLGGKAALTISGAQPEDEADYYCALWYSNHWVFGGGTKLTVLGTVAAPSVFIFPPSDEQLKSGTASVVCLLNNFYPREAKVQWKVDNALQSGNSQESVTEQDSKDSTYSLSSTLTLSKADYEKHKVYACEVTHQGLSSPVTKSFNRGECGGGGSEVQLVESGGGLVQPGGSLRLSCVASGRPFTKYAWGWFRQAPGKAREFVATITWDGGKTDYADSVKGRFTISKDSAKNSIYLQMNSLRAEDTAVYYCAADRNYCVGHRCYVRPDDYDYWGQGTLVTVS
notes: no Fc
Kd [3]: 54 nM

B4: CDR-6 (bispecific antibody)
heavy: B1 heavy
light: AVVTQEPSLTVSPGGTVTLTCGSSTGAVTTSNYANWVQQKPGKSPRGLIGGTNKRAPGVPARFSGSLLGGKAALTISGAQPEDEADYYCALWYSNHWVFGGGTKLTVLGTVAAPSVFIFPPSDEQLKSGTASVVCLLNNFYPREAKVQWKVDNALQSGNSQESVTEQDSKDSTYSLSSTLTLSKADYEKHKVYACEVTHQGLSSPVTKSFNRGECGGGGSEVQLVESGGGLAQAGGSLRVSCVASGRPFTKYAWGWFRQAPGKAREFVATITWDGGKTDYADSVKGRFTISKDSAENSIYLQMNSLKPEDTAVYYCAADRNYCVGHRCYVRPDDYDYWGQGTQVTVSS
U20S cell killing, IC50 [4]: 0.02 nM

B5: CDR-15 (bispecific antibody)
heavy: EVQLVESGGGLVQPGGSLRLSCAASGFTFSTYAMNWVRQAPGKGLEWVGRIRSKYNNYATYYADSVKGRFTISRDDSKNTLYLQMNSLRAEDTAVYYCVRHGNFGDSYVSWFAYWGQGTLVTVSSASTKGPSVFPLAPSSKSTSGGTAALGCLVKDYFPEPVTVSWNSGALTSGVHTFPAVLQSSGLYSLSSVVTVPSSSLGTQTYICNVNHKPSNTKVDKRVEPKSCGGGGSSYELTQPPSVSVSPGQTASITCTADTLSRSYASWYQQKPGQSPVLVIYRDTSRPSGIPERFSGSNSGNTATLTISGTQAMDEADYYCATSDGSGSNFQLFGGGTKLTVLGGGGGGSGGGGSGGGGSGGGGSESQVLESGGGSVQPGGSLRLSCTVSGFSLSNYAMSWVRQAPGKGLEYIGIVSSGGTTYYASWAKGRFTISKDTSKNTVYLQMNSLRAEDTASYYCAKDLYYGPTTQSAFNLWGQGTSVTVSS
light: QAVVTQEPSLTVSPGGTVTLTCGSSTGAVTTSNYANWVQQKPGKSPRGLIGGTNKRAPGVPARFSGSLLGGKAALTISGAQPEDEADYYCALWYSNHWVFGGGTKLTVLGQPKAAPSVTLFPPSSEELQANKATLVCLISDFYPGAVTVAWKADSSPVKAGVETTTPSKQSNNKYAASSYLSLTPEQWKSHRSYSCQVTHEGSTVEKTVAPTECSGGGGSSYELTQPPSVSVSPGQTASITCTADTLSRSYASWYQQKPGQSPVLVIYRDTSRPSGIPERFSGSNSGNTATLTISGTQAMDEADYYCATSDGSGSNFQLFGGGTKLTVLGGGGGGSGGGGSGGGGSGGGGSESQVLESGGGSVQPGGSLRLSCTVSGFSLSNYAMSWVRQAPGKGLEYIGIVSSGGTTYYASWAKGRFTISKDTSKNTVYLQMNSLRAEDTASYYCAKDLYYGPTTQSAFNLWGQGTSVTVSS
Kd [5]: 41 nM

B6: CDR-8 (bispecific antibody)
heavy: B5 heavy with S323R, D324P, G325S, Q470Y
light: B5 light with S310R, D311P, G312S, Q457Y
notes: no Fc; also called dual pMHC TCE; dual pMHC-targeting T cell engager in Fab-(scFv)2 format
Kd [5]: 0.1 nM

B7: CDR-1 (bispecific antibody)
heavy: EVQLVESGGGSVQPGGSLRLSCAASGFTFSTYAMNWVRQAPGKGLEWVGRIRSKANNYATYYADSVKGRFTISRDDSKNTLYLQMNSLRAEDTATYYCVRHGNFGDSYVSWFAYWGQGTTVTVSSASTKGPSVFPLAPSSKSTSGGTAALGCLVKDYFPEPVTVSWNSGALTSGVHTFPAVLQSSGLYSLSSVVTVPSSSLGTQTYICNVNHKPSNTKVDKRVEPKSC
light: EVQLVESGGGLAQAGGSLRVSCVASGRPFTKYAWGWFRQAPGKAREFVATITWDGGKTDYADSVKGRFTISKDSAENSIYLQMNSLKPEDTAVYYCAADRNYCVGHRCYVRPDDYDYWGQGTQVTVSSGGGGSAVVTQEPSLTVSPGGTVTLTCGSSTGAVTTSNYANWVQQKPGKSPRGLIGGTNKRAPGVPARFSGSLLGGKAALTISGAQPEDEADYYCALWYSNHWVFGGGTKLTVLGTVAAPSVFIFPPSDEQLKSGTASVVCLLNNFYPREAKVQWKVDNALQSGNSQESVTEQDSKDSTYSLSSTLTLSKADYEKHKVYACEVTHQGLSSPVTKSFNRGEC
notes: no Fc; also called Format #1; monovalent Fab-VHH HLA-A2/MAGE-A4 x CD3 bispecific
U20S cell killing, IC50 [1]: 0.1 nM
Kd [2]: 1.5 nM

B8: CDR-2 (bispecific antibody)
heavy: B7 heavy
light: B4 light
notes: no Fc; also called Format #2; monovalent Fab-VHH HLA-A2/MAGE-A4 x CD3 bispecific
U20S cell killing, IC50 [1]: 0.18 nM
Kd [2]: 2.6 nM

B9: CDR-5 (bispecific antibody)
heavy: B1 heavy
light: B7 light
U20S cell killing, IC50 [4]: 0.01 nM

B10: CDR-10 (bispecific antibody)
heavy: EVQLVESGGGLVQPGGSLRLSCAASGFTFSTYAMNWVRQAPGKGLEWVGRIRSKYNNYATYYADSVKGRFTISRDDSKNTLYLQMNSLRAEDTAVYYCVRHGNFGDSYVSWFAYWGQGTLVTVSSASTKGPSVFPLAPSSKSTSGGTAALGCLVKDYFPEPVTVSWNSGALTSGVHTFPAVLQSSGLYSLSSVVTVPSSSLGTQTYICNVNHKPSNTKVDKRVEPKSCGGGGSEVQLVESGGGLVQPGGSLRLSCVASGRPFTKYAWGWFRQAPGKAREFVATITWDGGKTDYADSVKGRFTISKDSAKNSIYLQMNSLRAEDTAVYYCAADRNYCVGHRCYVRPDDYDYWGQGTLVTVSS
light: QAVVTQEPSLTVSPGGTVTLTCGSSTGAVTTSNYANWVQQKPGKSPRGLIGGTNKRAPGVPARFSGSLLGGKAALTISGAQPEDEADYYCALWYSNHWVFGGGTKLTVLGTVAAPSVFIFPPSDEQLKSGTASVVCLLNNFYPREAKVQWKVDNALQSGNSQESVTEQDSKDSTYSLSSTLTLSKADYEKHKVYACEVTHQGLSSPVTKSFNRGECGGGGSEVQLVESGGGLVQPGGSLRLSCVASGRPFTKYAWGWFRQAPGKAREFVATITWDGGKTDYADSVKGRFTISKDSAKNSIYLQMNSLRAEDTAVYYCAADRNYCVGHRCYVRPDDYDYWGQGTLVTVSS
notes: no Fc
Kd [3]: 11 nM

B11: CDR-11 (bispecific antibody)
heavy: B10 heavy with D106N
light: B10 light with G23R, K44Q, S45A
notes: no Fc
Kd [3]: 1.2 nM
